Experimental data from patent US20230374114A1 (Dana-Farber, published 2023).

Columns and labels:
[1] = biological target: spike protein on live SARS-CoV-2 (isolate USA-WA1/2020) (SARS-CoV2, UniProt P0DTC2 14-1273); assay: cell-based or functional assay
[2] = biological target: WT Spike (SARS-CoV2, UniProt P0DTC2 16-1213)
[3] = biological target: WT Spike (SARS-CoV-2, UniProt P0DTC2 16-1213)

B1: Ab 14 IgG (antibody, V domains shown)
VH: QVQLQQSGPGLVKPSQTLSLTCAISGDSVSSNSAAWNWIRQSPARGLEWLGRTYYRSRWYNDYAISMKSRITINPDTSKNQFSLQLESVTPEDTAVYYCAREIRGFDYWGQGTLVTVSS
VL: QSVLTQPPSASGSPGQSVTISCTGTSSDVGAYNFVSWYQHHPGKAPKLIIYDFNKRPSGVPDRFSGSKSGNTASLTVSGLQADDEADYYCSSYAGSNNFDVVFGGGTKLTVL
Question: With B1 as the binder, how does the “shift of the neutralization IC50 of the IgG against the scFv-Fc” value [1] read?
Answer: The value was 40 fold.

B2: S1-RBD-R3-E1-E8 Ab (Ab 37) (scFv, V domains shown)
VH: QVQLVQSGAEVKKPGASVKVSCKASGYTFTSYGISWVRQAPGQGLEWMGWISTYNGNTNYAQKLQGRVTMTTDTSTSTAYMEVRSLRSDDTAVYYCARDVFGHFDYWGQGTLVTVSS
VL: NFMLTQPHSVSESPGKTVLISCTRSSGNIATNYVQWYQQRPGSAPTTVIYEDNQRPSGVPDRFSGSIDSSSNSASLTISGLKTEDEADYYCKSYDDGNHVFGGGTKLTVL
Question: B2 was tested. Which Kd [2] did it give?
Answer: The Kd was 9 pM.

B3: S1-RBD-R3-T1-F9 Ab (Ab_39) (scFv, V domains shown)
VH: QVTLKESGPTLVKPTQTLTLTCTLSGVSLDTIGMRVSWIRQPPGKALEWLARIDWDDDKFYSTALKTRLTISKDTSKNQVVFTMTSMDPVDTATYYCARSGLLYDLDVWGRGTLVTVSS
VL: QSVVTQPPSVSGAPGQRVTISCTGSDSDIGANFVQWYQQLPGTAPKLLIWRNTNRPSGVPDRFSASKSGTSASLAITGLQAEDEADYFCQSYDSSLSAYVFGGGTKVTVL
Question: Which Kd [2] does the source give for B3 here?
Answer: The Kd was 2.04 pM.

B4: S1-RBD-R3-T1-G1 Ab (Ab_35) (scFv, V domains shown)
VH: EVQLVQSGAEVKKPGESLRISCKASGYSFTSNWIGWVRQMPGKGLEWMGSIFPGDSDTKYSPSFQGQVTISADRSISTAYLQWSGLKASDTAMYYCARESYNAYGSWGQGTLVTVSS
VL: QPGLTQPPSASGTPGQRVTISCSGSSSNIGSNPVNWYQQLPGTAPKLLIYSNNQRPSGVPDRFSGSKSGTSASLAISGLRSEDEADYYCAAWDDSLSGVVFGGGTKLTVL
Question: B4 was tested. Which Kd [2] did it give?
Answer: Its Kd is 8.9 pM.

B5: RBD-R3-E1-F5 Ab (Ab_36) (scFv, V domains shown)
VH: QVQLQQSGPGLVKPSQTLSLTCAIFGDSVTSNSAAWNWIRQSPSRGLEWLGRTYYSSKWYNDYAVSVKSRVTINADTSKNQLSLQLNSVTPEDTAVYYCARGWLRLSFDPWGQGTLVTVSS
VL: NFMLTQPHSVSESPGKTVTISCTGSSGSIASNYVQWLQQRLGSAPTTVIYEDNQRPSGVPDRFSGSIDSSSNSASLTISGLKTEDEADYYCQSYDPNNHGVVFGGGTKLTVL
Question: With B5 as the binder, how does the Kd [2] read?
Answer: The Kd was 9.01 pM.

B6: S1-R3-T1-H7 (Ab12) (scFv, V domains shown)
VH: EVQLVESGPGVVSPSATLFLTCSVSGGSIRTHSWNWIRQPPGKPLEWIGFIHHSGATNKNPSLKSRVTISSDTSKNEFSLTLTSVTAADTAVYYCARGPGILSYWSRGTLVTVSS
VL: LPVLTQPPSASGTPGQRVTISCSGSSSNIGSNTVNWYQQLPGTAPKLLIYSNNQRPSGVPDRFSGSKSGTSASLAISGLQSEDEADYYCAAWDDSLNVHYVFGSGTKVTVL
Question: For B6, which Kd [3] is on record?
Answer: Its Kd is 8.31 pM.

B7: Ab 38 (scFv, V domains shown)
VH: QVTLKESGPTLVKPTQTLTLTCTFSGFSLTTSGVSVGWIRQPPGKALEWLALIHWDDDKRYSPSLRSRLTITRDTSKNQVVLTVTDMDPADTGTYYCASFIMTVYAEYFEDWGQGTLVTVSS
VL: EIVLTQSPATLSVSPGERATLSCRASQSVSSNLAWYQQKPGQAPRLLMYDVSTRATGIPARFSGSGSGTEFSLTISSLQSEDFAVYYCQQRGAWPLTFGGGTKVEIK
Question: How did the Kd [2] turn out when B7 was run?
Answer: Its Kd is 7.86 pM.
